Experiment [1] addresses Type I IFN receptor (human) (UniProt P17181). Briefly: cell-based or functional assay.
Experiment [2] addresses T1, Type II IFN (IFN γ) receptor (human) (UniProt P15260).
T1 sequence (looked up) 1: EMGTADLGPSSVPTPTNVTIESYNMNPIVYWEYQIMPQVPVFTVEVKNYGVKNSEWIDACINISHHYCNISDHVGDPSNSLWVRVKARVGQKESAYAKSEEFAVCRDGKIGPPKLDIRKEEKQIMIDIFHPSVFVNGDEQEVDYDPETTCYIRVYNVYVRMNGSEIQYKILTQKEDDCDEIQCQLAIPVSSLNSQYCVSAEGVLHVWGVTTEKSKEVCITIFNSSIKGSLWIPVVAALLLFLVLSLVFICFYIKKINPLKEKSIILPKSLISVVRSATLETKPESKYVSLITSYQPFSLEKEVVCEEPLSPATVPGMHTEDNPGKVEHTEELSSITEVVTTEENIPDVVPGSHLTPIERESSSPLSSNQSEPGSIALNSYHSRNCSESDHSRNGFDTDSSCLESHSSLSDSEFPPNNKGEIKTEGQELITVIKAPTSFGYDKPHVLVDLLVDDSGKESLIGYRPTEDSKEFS
T1 sequence (looked up) 2: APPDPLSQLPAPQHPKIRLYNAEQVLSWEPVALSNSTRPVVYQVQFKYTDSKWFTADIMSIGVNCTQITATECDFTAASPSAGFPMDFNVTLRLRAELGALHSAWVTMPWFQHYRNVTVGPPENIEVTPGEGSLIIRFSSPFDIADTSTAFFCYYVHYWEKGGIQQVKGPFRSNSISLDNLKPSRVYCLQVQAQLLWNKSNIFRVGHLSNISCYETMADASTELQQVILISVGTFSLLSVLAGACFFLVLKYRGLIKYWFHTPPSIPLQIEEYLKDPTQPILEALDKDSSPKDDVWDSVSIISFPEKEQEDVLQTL
Briefly: cell-based or functional assay.

Sequence of UniProt P17181 (P17181 28-557, chain 1 of 2): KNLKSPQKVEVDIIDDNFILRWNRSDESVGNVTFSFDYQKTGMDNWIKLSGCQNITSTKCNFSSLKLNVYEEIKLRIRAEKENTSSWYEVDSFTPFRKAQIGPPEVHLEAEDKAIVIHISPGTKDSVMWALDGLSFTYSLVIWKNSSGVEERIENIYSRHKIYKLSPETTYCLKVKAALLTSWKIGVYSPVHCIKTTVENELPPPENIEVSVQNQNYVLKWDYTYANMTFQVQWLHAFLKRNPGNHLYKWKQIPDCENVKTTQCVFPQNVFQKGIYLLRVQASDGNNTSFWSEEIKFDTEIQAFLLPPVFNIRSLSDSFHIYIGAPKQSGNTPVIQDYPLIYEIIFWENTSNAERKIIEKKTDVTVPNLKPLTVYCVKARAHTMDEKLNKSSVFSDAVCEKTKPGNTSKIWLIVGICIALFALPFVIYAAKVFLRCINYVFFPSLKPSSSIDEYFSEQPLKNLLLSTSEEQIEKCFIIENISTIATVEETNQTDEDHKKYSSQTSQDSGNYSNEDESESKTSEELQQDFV
Sequence of UniProt P17181 (P48551 27-515, chain 2 of 2, further chain): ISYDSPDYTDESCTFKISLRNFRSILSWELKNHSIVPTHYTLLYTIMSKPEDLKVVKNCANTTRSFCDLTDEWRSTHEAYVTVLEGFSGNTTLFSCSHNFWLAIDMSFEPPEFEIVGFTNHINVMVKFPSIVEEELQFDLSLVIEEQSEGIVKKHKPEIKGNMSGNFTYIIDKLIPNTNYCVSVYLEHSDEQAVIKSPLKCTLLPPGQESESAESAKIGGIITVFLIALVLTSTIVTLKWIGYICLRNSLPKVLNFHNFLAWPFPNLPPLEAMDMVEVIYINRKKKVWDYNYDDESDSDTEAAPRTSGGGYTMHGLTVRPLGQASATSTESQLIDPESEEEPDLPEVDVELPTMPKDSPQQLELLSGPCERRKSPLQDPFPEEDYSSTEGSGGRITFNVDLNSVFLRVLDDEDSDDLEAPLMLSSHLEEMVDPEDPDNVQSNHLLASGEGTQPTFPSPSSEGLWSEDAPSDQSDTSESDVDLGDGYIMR

As for human IFNα (ligand), in experiment [1], the RLU (Relative Luciferase Units): Fold Increase, GAS-Luc reporter in U937 cells, IFNα 1.0 IU/ml came out at 1.5 fold and the RLU (Relative Luciferase Units): Fold Increase, GAS-Luc reporter in U937 cells, IFNα 100.0 IU/ml worked out at 3 fold.
For “human interferon gamma (IFNγ) (from UniProt P01579 24-166) (ligand)”, in experiment [2], the RLU (Relative Luciferase Units): Fold Increase, GAS-Luc reporter in U266R cells Clone 2 (UIG2), IFNγ 1.0 IU/ml was found to be 1.5 fold; the RLU (Relative Luciferase Units): Fold Increase, GAS-Luc reporter in U266R cells Clone 2 (UIG2), IFNγ 100 0 IU/ml (so in the source) came to 9 fold; the RLU (Relative Luciferase Units): Fold Increase, GAS-Luc reporter in U937 cells, IFNγ 10.0 IU/ml came to 1.25 fold; the RLU (Relative Luciferase Units): Fold Increase, GAS-Luc reporter in U937 cells, IFNγ 100 0 IU/ml (so in the source) was 1.5 fold. The same substance gave a fold increase in RLU, IRF-Luc reporter in U937 cells Clone #2 (IRF-Luc2), IFNγ in experiment [2] of 1.1 fold.
